The data set in a line: yeast display, Sf9 membrane polyspecificity reagent, FACS + sequencing; frameworks hold sequencing errors. Put shortly:
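After 36–48 hours of galactose induction, yeast (Saccharomyces cerevisiae BJ5465) displaying a synthetic nanobody library were stained at 4 °C for 1 hour with 10% biotinylated, detergent-solubilized Sf9 membrane reagent. Streptavidin microbeads enriched the stained cells before FACS sorting into low and high (top ~1%) gates on anti-HA and streptavidin fluorescence. Each clone's polyreactivity label reflects its gate of origin.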
For the sequence “QVQLVESCGGLVQAGGSLRLSCAASGSIFGWYAMGWYRQAPGKESELVAAISTSTGSTYYADSVKGRFTISRDNAKNTVYLQMNSLKPEDTAVYYCAVVVAGVFLWGVERYDYWGQGTQVTVSS”, the “polyreactivity (PSR sort gate)” value is on record as “low polyreactivity”.

With “QVQLVESCGGLVQAGGSLRLSCAASGSTFRYNAMGWYRQAPGKERELVAAISWSGGSTYYADSVKGRFTISRDNAKNTVYLQMNSLKPEDTAVYYCAKVYFWGALSPDKFDEDYWGQGTQVTVSS”, the “polyreactivity (PSR sort gate)” value is “low polyreactivity”.

“QVQLVESCGGLVQAGGSLRLSCAASGSTFYLNAMGWYRQAPGKERELVAAIDYRGGSTYYADSVKGRFTISRDYAKNTVYLQMNSLKPEDTAVYYCAKDRPGFLVGWGGGYDYWGQGTQVTVSS”: the “polyreactivity (PSR sort gate)” value was “low polyreactivity”.

For “QVQLVESCGGLVQAGGSLRLSCADSGLTMYGYARGWYRHAPGNERELVATLTRRGGSTYYADSVKGRFTISRDNAKNTVYLQMNSLKPEDPAVYYCAATYQHQNPQGVFSGGYYYWGQGTQVTVAS”, the “polyreactivity (PSR sort gate)” value is “high polyreactivity”.

Take “QVQLVESCGGLVQAGGSLRLSCAPSGSTIPPNAMGWNRQAPRQERELVADSSDSSTSYADSVKGRFSISRDNAKNTVYLQMKSQKPEDTAVYYCAAADAGLRSKSYGQQYDYWGQGTQVTVSS”: the “polyreactivity (PSR sort gate)” value is “low polyreactivity”.

As for “QVQLVESCGGLVQAGGSLRLTCAASGSTFNWYTMGWYRQAPGKDRELVAAMSRGTGSTYYADSVKGRFTMSRDNANNRVYVQMNSLKPEDTAVYSCAKQGYRYSSFLYDYWGQGTQVTVSS”, the “polyreactivity (PSR sort gate)” value is given as “low polyreactivity”.

With “QVQLVESCGGLVQAGGTLRLRCAASGFTFYPYSMGWYRQAPWKERELVAAITRGGITYYADSVKGRFTISRDYAKNTVYLQMKSLKPEDTAVYYCNAGWYVSYRWYRSDYWGQGTQVTVSS”, the “polyreactivity (PSR sort gate)” value was “high polyreactivity”.

For the sequence “QVQLVESCGGLVQAGSSLRLSCAASVITFYGYAMGWYRQAPGKERELVADITRGGSTNYADSVKGRFTISRDNAKNTVFLQMNSLKPEDSAVYYCAKSTRRFSWYYSTVGYNYWAQGTQVTVSS”, the “polyreactivity (PSR sort gate)” value is on record as “high polyreactivity”.

With “QVQLVESCGGLVQEGGSLRLSCAASGRIFVVSAMGRYRQAPGKERELVAAISKRGGSTYYADSVKGRFTISRDNAKKTVYLQMNSLKPEDTAVYYCAKSRLVRGRSSYDYWGHGTQVTVSS”, the “polyreactivity (PSR sort gate)” value is recorded as “high polyreactivity”.

Consider “QVQLVESCVGLVQAGGSLRLSCAASRSTFDSYAMGWYRQAPGNEREMVASITSRGGRTYYADSVKGRFSISRDNAMNTVYLEMNSLKPEDTAVYYCNAYRRKYYYYQRHGFWGQGTQVTVSS”, for which the “polyreactivity (PSR sort gate)” value is recorded as “high polyreactivity”.

In the case of “QVQLVESCVVLVQAAGSLRLSFAHSGSTFKVYAMGTYRQATGKERELVASISSGGSTNYADSVKGRFTISRDNAKNTVYLQMNSLKPEDTAVYYCALRRYTHRRYRFDYWGQGTQVTVSS”, the “polyreactivity (PSR sort gate)” value was “high polyreactivity”.

For the sequence “QVQLVESGAALVQAAGSLRLSCAASGSIFTPYAMGWYRQAPGKERELVAGIRSSGGRTYYADSVKGRFTISRDNAKNTVYLQMNSLKPEDTAVSYCAADQDWYGFVIGFDYWGQGTQVTVSS”, the “polyreactivity (PSR sort gate)” value was “low polyreactivity”.

Regarding “QVQLVESGACLVKAGGSLRLSCAASGSSFYGYAMGWYRQAPGKERELVASITVSVGSTNADSVKGRFTISRDNAKNTVYLQMISLKPEDTAVYYCAAETVHSREQREGDYWGQGTQVSVSS”, the “polyreactivity (PSR sort gate)” value is recorded as “low polyreactivity”.

As to “QVQLVESGACLVQAGGSLRLSFAASGSIFGWYTMGWYRPAPGKERELVAAISNSGTSSYYADSEKGRFTISRDTAKNTVYLQMNSLKPEDTAVYYCNAYSDLFGSYTDLGEYDYWVQGTQVTVSS”, the “polyreactivity (PSR sort gate)” value is given as “low polyreactivity”.

In the case of “QVQLVESGAGFFQAGGSLRVSCAASGRTFPVYAMGWYRHAPGNERELVARINSGGRTTYADSVKGRFTISRDNAKNTVYLQMISLNPEDTAVYYCNARSWYYVWRKGYRHGDYWGQGTQVTVSS”, the “polyreactivity (PSR sort gate)” value is on record as “high polyreactivity”.

With “QVQLVESGAGIVQAGGSLRLSCAASGRTCTWYAMGWYTQAPGKERELVAAISKSGGSTYYADSVKGRFTISRDTAKNTVFLQMNSLKPEDTAVYYCNADFYGYFLGYGYWGQGTQVTVSS”, the “polyreactivity (PSR sort gate)” value is recorded as “low polyreactivity”.

As to “QVQLVESGAGIVQAGGSLRLSCAASGRTFNWYAMGLYTQPPGKERELVAAITYPGGTTYYADSVKGRFTISRDNAKNTVYLQMNSLKPEDTAVYYCAATFRYRRVTPTTRFNYWGQGTQVTVSS”, the “polyreactivity (PSR sort gate)” value is on record as “high polyreactivity”.

Turning to “QVQLVESGAGLVQAGGILRLSCAASGRTFYRNTMGWYRQAPGKEREFVAAISATAGRTYYADSVKGRFTISRDNAKNTVYLQMNSLKPEDTAVYYCAAVPLRNRLPNSWPALDYWGQGTQVTVSS”, the “polyreactivity (PSR sort gate)” value is on record as “high polyreactivity”.

Turning to “QVQLVESGAGLVQAGGRLRLSCAASGFTFYYNAMGWYRQAPGKEREFVAAISRSAGSTTYADSVKGRFTISRDNAKNTVYLQMNSLKPEDTAVYYCNARRSRGKSYDYWGQGTQVTVSS”, the “polyreactivity (PSR sort gate)” value was “high polyreactivity”.

“QVQLVESGAGLVQAGGSLRFSCAASGFIFVAYAMGLYRPAPGKERELVAAITSSGGTTYYADSVKGRFTISRDNAKNSVYFQMNSLKPEDTAVYYSAAYRRRSPFEYWGQGTQVNVSS”: the “polyreactivity (PSR sort gate)” value is “high polyreactivity”.

In the case of “QVQLVESGAGLVQAGGSLRISCDASGSIFWSYAMGWYRQAPGKERELVADITGIGGSTYYADSVKGRFTISRDNAKNTVYLQMNSLKPEDTAVYYCAADTWFTAQTYNFYYRGQGTQVTVSS”, the “polyreactivity (PSR sort gate)” value was “high polyreactivity”.

Consider “QVQLVESGAGLVQAGGSLRLSCAASGFTLVLNAMGGYSQAPGKERELVAAIRRSAGSTYYADSVKGRFTISRDNAKNTVYLQMNSLKPEDTAVYYSNADYTYTDRRFAPAGGWYYYWGQGTQVTVSS”, for which the “polyreactivity (PSR sort gate)” value is given as “low polyreactivity”.

For “QVQLVESGAGLVQAGGSLRLSCAASGGTLRYYAMGWYRPAPGKEREFVASISRSGGSTYYADSVKGRFTISRYNAKNTVYLQMNSLKPEDTAVYYCAAYWSPGYTTGRGYWGQGTQVTVSS”, the “polyreactivity (PSR sort gate)” value is “high polyreactivity”.

Take “QVQLVESGAGLVQAGGSLRLSCAASGLTFIYNAMVWYRQAPGKERELVAAISGNGGDTYYADSVKGRFTLSRDNAKNTVYLQMNSLKPEDTAVYYCAADYAYTPITCDEYWGQGTKVTVSS”: the “polyreactivity (PSR sort gate)” value is on record as “low polyreactivity”.

“QVQLVESGAGLVQAGGSLRLSCAASGLTFRSYAMGWYRQAPGKERELVAAITRSGGSTYYADSVKGRFTISRDNAKNTVYLQMNSLKPEDTAVYYCAARYKGNPDRYGYWGQGTQVTVSS”: the “polyreactivity (PSR sort gate)” value was “high polyreactivity”.

Turning to “QVQLVESGAGLVQAGGSLRLSCAASGPILRTYAKGWYRQAPGKERELVAAISRSGGSSYYADSVKGRFTLSRDNAKNTVYLLMNSLKPEDTAVYYCNKAYGGRGYKYEYWGQGSQVTVSS”, the “polyreactivity (PSR sort gate)” value is “high polyreactivity”.

For “QVQLVESGAGLVQAGGSLRLSCAASGRTFGTNTKGWYRPAPGKEREFVATITSSGGSTYYADSVKGRFTISRDNAKNTVYLQMNSLKPEDTAVYYCATDPYGGKTQYPSLRYDYWGQGTQVTVSS”, the “polyreactivity (PSR sort gate)” value is recorded as “low polyreactivity”.

For the sequence “QVQLVESGAGLVQAGGSLRLSCAASGSIFNSYAMGWYRQPPGKERELVAAISKAGGSTYYADSVKGRFTISRDNAKNTVYLQMNSQKPEDTAVYYCAARYGRCYDSAYNYWGQGTQVTVSS”, the “polyreactivity (PSR sort gate)” value was “high polyreactivity”.

Consider “QVQLVESGAGLVQAGGSLRLSCAASGSIFVYYTMGCYRQAPGKEREFVAAISFSGGSTYADSVKGRFTISRDNAKNTVYLQMNSLKPEDTAVYYCNADRWLYTPSKFVEMDFWGQGTQVTVSS”, for which the “polyreactivity (PSR sort gate)” value is listed as “low polyreactivity”.

In the case of “QVQLVESGAGLVQAGGSLRLSCAASGSNFKWYAMGLYRQAPGKEREFVAAITWSGSGTFYADSVKGRFTISRDNAKKTVYLQMNSLKPEDTAVYYCNKADSYLLYSVTARYFRGFYSWGQVTQVTVSS”, the “polyreactivity (PSR sort gate)” value is “high polyreactivity”.

Take “QVQLVESGAGLVQAGGSLRLSCAASGSSFYFNAMGLYRQAPGKERELVAAIDWSGGSTYYADSVKGRFTISRDNAKNTVYLQMNSLKPEDTAVYYCAAPYHYYGNTVGYADYDYWGQVTQVTVSS”: the “polyreactivity (PSR sort gate)” value is “low polyreactivity”.

In the case of “QVQLVESGAGLVQAGGSLRLSCAASGSTFPFYAMGWSRQAPGKERELVAAITSGGSTYADSVKGRFTISRDNAKNTVYLQMNSLKPEDTAVYYCNAEQNPSGLYDYRGVEGEMGYWGQGTQVTVSS”, the “polyreactivity (PSR sort gate)” value is “low polyreactivity”.

Take “QVQLVESGAGLVQAGGSLRLSCAASGSTFSRYAMGWYRQAPGKERELVAAISSRGGSTYYADSVKGRFTISRDNAKNTVYLQMNSLKPEDTAVYYCNALTSYQNHVYPYDYWGQGTQVTVSS”: the “polyreactivity (PSR sort gate)” value is listed as “high polyreactivity”.

With “QVQLVESGAGLVQAGGSLRLSCAASGSTFSYYAMGWSRQAPGKERELVAAITSSGGSTYYADSVKGRFTISRDNAKNTVYLQMNSLKQEDTAVYYCNTAYHVPYDYWGQGTQVTVSS”, the “polyreactivity (PSR sort gate)” value is “low polyreactivity”.

With “QVQLVESGAGLVQAGGSLRLSCAASGSTFSYYTMGWYRHAPGKERELVAAITSGGPTNYADSVKGRFTISRDNAKNTVYLQMNSLKPEDTAVYYCAAALYYGWGYYYWGQGTQVTVSS”, the “polyreactivity (PSR sort gate)” value is recorded as “low polyreactivity”.

In the case of “QVQLVESGAGLVQAGGSLRLSCAASGSTSTLNAMGWYRQAPGTERELVAAISRSGTSTYYADSVKGRFTISRDNAKNTVYLQMNSLKPEDTAVYYCAAYSYGPPYYYWGQGTQVTVSS”, the “polyreactivity (PSR sort gate)” value was “high polyreactivity”.

Regarding “QVQLVESGAGLVQAGGSLRLSCAASVRIFFYGMGWYIQAPGKQMELVATITSVSNTYYADSVKGRFTISRDNAKNTVYLQMNSLKPEDTAVYYCAARQDRYRYRYGYWGHGTQVTVSS”, the “polyreactivity (PSR sort gate)” value is “high polyreactivity”.

As to “QVQLVESGAGLVQAGGSLRLSCAAYGFIFRTNAMGWYRQAPGKERELVAAISNSGGRTYYADSVKGRFTLSRDNSKNTVYLQMNSLKPEDTAVYYCAAVLWYDIYYGGDYWGQGTQVTVSS”, the “polyreactivity (PSR sort gate)” value is given as “high polyreactivity”.

As for “QVQLVESGAGLVQAGGSLRLSCADSVNTFWYYTMGWYRQAPGKERELVAAISRGGRPYYADSVKGRFTISRDNAKNTVYLQMNSLKPEDTAVYNCNKPAPYTGSFDRSGIFDYWGQGTQVTVSS”, the “polyreactivity (PSR sort gate)” value is reported as “high polyreactivity”.

Regarding “QVQLVESGAGLVQAGGSLRLSCASSGYIFDRYAMGWYRQAPGKERELVAAISGRGGSTYYADSVKGRFTISRDNAKYTVYLKMNSLKPEDTAVYYCARDVYVRYGQRARYDSWGQGTQVTVSS”, the “polyreactivity (PSR sort gate)” value is given as “high polyreactivity”.
